Assay results: patent publication US9738880B2, “Lysosomal protein targeting sequence and therapeutic applications of same” (Children's Hospital Medical Center, priority 2013, dated 2017)
Entries after “also recorded” stand apart in the source; their conditions may differ.

Columns and labels:
[1] = CRIM specific activity of GCase variants (activity per cross-reacting immunological material); assay type: biochemical; conditions: FIG. 11A, 11B right panels
Description: (§1) Enzyme Assays: Cell pellets were homogenized in 0.25% Na-taurocholate and 0.25% Triton X-100. GCase activities were determined fluorometrically with 4 mM 4MU-Glc in 0.2M/0.1M citric-phosphate, pH 5.6 (18, 54)
Corresponding effects on the secretion of GCases from the cells containing various mutations in DSPIIVDITDK were found by assessing the activity of GCases in the media and cell lysate (FIG. 11 A-C). […] Using this assessment, the ratio of CRIM specific activities relative to WT (assigned 100%) for AAA, TAD, and AKA were 20%, 32%, and 49%, respectively (FIG. 11A, right panel), or that more GCase protein was required from the respective mutants to achieve the same enzyme activity as the WT. […] For the other mutants this ranged from 22-36%. This compares to ˜0% for the WT or D399E GCases Immunoaffinity anti-GCase column purification of the various GCases from media confirmed the excesses of these mutant GCases and the inability to detect WT or D399E GCases in media (data not shown).

[2] = system: Gba1−/− fibroblasts; test: GCase activity in media and cell lysates after transient transfection (secretion and retention); assay type: cell-based, mouse; conditions: media, FIG. 11A, 11B
From the text: FIG. 11A-FIG. 11C: Secretion and retention of GCase with alanine variants in the TDK (FIG. 11A) or DSPIIV (SEQ ID NO 15) (FIG. 11B and FIG. 11C) sequences. FIG. 11A depicts activities in the media of Gba1−/− fibroblasts following transient transfections of each of the specified alanine substituted GCases in the TDK region. […] FIG. 11B depicts in the Left Panel: Activities in the media following transient transfections of various DSPIIV (SEQ ID NO 15) alanine substituted GCases and the % of GCase secreted. The latter was calculated as {ng GCase (in media)/[ng GCase (in media)+ng (GCase in lysates)]}×100 (also see Table 2). […] The transfections alone (Null+lipo) had no effect. […] FIG. 11C deicts in cellular lysate GCase activities from the various alanine substituted GCases in the DSPIIV (SEQ ID NO 15) sequence as indicated. […] The doubly alanine substituted GCase had little intracellular activity, i.e., nearly all the GCase was secreted into the media.
as §1

[3] = target: T1, ldLIMP2 (Homo sapiens, UniProt Q14108); test: Immunoprecipitation of alanine substituted GCases (TKD sequence) with ldLIMP2; assay type: binding; conditions: for binding of GCase variant to ldLIMP2, in words: GCase:LIMP2 1:1, immunoblot, FIG. 6
T1 construct: Purified luminal domain LIMP-2 (1d-LIMP2) was custom made (Sino Biological Inc., PRC.); purchased Sino Biological Inc
T1 sequence (Q14108 28-433 limits assumed): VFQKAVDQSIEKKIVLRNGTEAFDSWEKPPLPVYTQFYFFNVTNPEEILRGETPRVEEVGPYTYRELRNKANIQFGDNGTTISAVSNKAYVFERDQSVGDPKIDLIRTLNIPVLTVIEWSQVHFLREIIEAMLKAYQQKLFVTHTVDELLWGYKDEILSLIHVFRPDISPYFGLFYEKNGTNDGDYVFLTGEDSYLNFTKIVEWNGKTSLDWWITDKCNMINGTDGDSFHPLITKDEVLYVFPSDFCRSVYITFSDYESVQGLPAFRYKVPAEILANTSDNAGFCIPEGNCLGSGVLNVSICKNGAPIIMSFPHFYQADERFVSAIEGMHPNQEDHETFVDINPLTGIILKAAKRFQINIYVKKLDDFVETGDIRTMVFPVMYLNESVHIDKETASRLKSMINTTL
From the text: FIG. 6A-6E: Immunoprecipitation of the alanine substituted GCases in the TKD sequence with ldLIMP2. In panels shown in FIG. 6A to FIG. 6D, the lanes 1 through 6 correspond to the band densities indicated by the bars in FIG. 6E. […] The quantitative results are shown in (FIG. 6E) in which 1, 2, 3, and 4 correspond to WT, AAA, AKA, and AKD, respectively.
Immunoprecipitation of GCases with mutations in the TKD sequence: For immunoblots, Gba1 knockout mouse fibroblasts (null/null) were transfected with the GBA1 constructs (WT or mutants) and expressed for 5 days. The GCases from harvested cell lysates were purified using a GCase antibody affinity column (Dynabeads protein G crosslinked (BS3) with rabbit anti-human GCase antibody). The purified GCases were then mixed with LIMP2 (1:1), incubated (30 min.), and applied to another affinity column (Dynabeads protein G crosslinked (BS3) with rabbit anti-LIMP2 antibody). Aliquots of each step (loading, wash and eluent) were collected and analyzed on 12.5% SDS gels. Immunoblots were developed using anti-human GCase antibody and AP conjugated color development kits. Mock experiments with either non-LIMP2 proteins added or no GCases added, were used as control. The quantitations of these immunoprecipitation data were obtained from densitometry measurements of the gels. The no-LIMP-2 bars are the controls for comparison, since GCase was processed through all steps without LIMP-2 to account for any losses of GCase; About 50% of the GCase was lost during processing.

[4] = system: Gba1 null/null mouse fibroblasts; test: Immunofluorescence co-localization of expressed GCase constructs (lysosome vs ER/Golgi); assay type: cell-based; conditions: for lysosomal localization of GCases with alanine substitutions in the TKD sequence, in words: FIG. 5; for co-localization to / retention in the ER/Golgi, in words: calnexin or calreticulin
From the text: Immunofluorescence studies (IF): Mouse Gba1 null/null were used for the host cells for all transfection experiments. pCMV-AC-GFP Mammalian cell expression vector was used for expression of various GCases that included the TKD region (amino acids 407, 408 and 409) or the DSPIIV (SEQ ID NO 15) region (amino acids 399-404). Direct-labeled first antibodies were applied for IF detection; including anti-human GCase, -Calreticulin, -calnexin, -LIMP2, and -Lamp1. Lysotracker and ER tracker (Invitrogen) were also used as indicated. Analyses were done with a Zeiss AxioVert 200M with ApoTome. Co-localization analyses to obtain Pearson Indices were conducted using a module in the Axiovision 4.8 software.
Initial studies to localize the targeting peptide were conducted with GCase-GFP fusion constructs that had COOH-terminal deletions of GCase (FIG. 1). The constructs are designated as GCase-XX or XXX where the Xs represent the number of GCase amino acids deleted from the COOH-terminus. These constructs were transfected into and expressed in Gba1 null/null mouse fibroblasts using the CMV promoter (pCMV-AC-GFP or YFP) Immunofluorescence analyses using anti-human GCase IgG (green) and Lysotracker (Red) were used for colocalization of GCase to the lysosome (Red) or GCase (green) and Calreticulin or Calnexin (Red) for colocalization to the ER or Golgi (FIG. 2). […] Since LIMP-2 is the receptor for targeting of GCase to the lysosome, our working hypothesis was that the peptide sequence for binding of GCase to LIMP-2 was located within amino acids 347-422.

B1: TAD: human GCase with TKD (407-409) replaced by TAD (protein)
chain: ARPCIPKSFGYSSVVCVCNATYCDSFDPPTFPALGTFSRYESTRSGRRMELSMGPIQANHTGTGLLLTLQPEQKFQKVKGFGGAMTDAAALNILALSPPAQNLLLKSYFSEEGIGYNIIRVPMASCDFSIRTYTYADTPDDFQLHNFSLPEEDTKLKIPLIHRALQLAQRPVSLLASPWTSPTWLKTNGAVNGKGSLKGQPGDIYHQTWARYFVKFLDAYAEHKLQFWAVTAENEPSAGLLSGYPFQCLGFTPEHQRDFIARDLGPTLANSTHHNVRLLMLDDQRLLLPHWAKVVLTDPEAAKYVHGIAVHWYLDFLAPAKATLGETHRLFPNTMLFASEACVGSKFWEQSVRLGSWDRGMQYSHSIITNLLYHVVGWTDWNLALNPEGGPNWVRNFVDSPIIVDITADTFYKQPMFYHLGHFSKFIPEGSQRVGLVASQKNDLDAVALMHPDGSAVVVVLNRSSKDVPLTIKDPAVGFLETISPGYSIHTYLWRRQ
CRIM specific activity relative to WT (assigned 100%) [1]: 32% | increase of GCase activity in the media compared to WT ([2]; transient transfection): ~8 fold | binding of GCase variant to ldLIMP2, in words [3]: bound similarly

B2: AAA: human GCase with triple alanine substitution of TKD (positions 407-409) (protein, listed as Homo sapiens)
chain: ARPCIPKSFGYSSVVCVCNATYCDSFDPPTFPALGTFSRYESTRSGRRMELSMGPIQANHTGTGLLLTLQPEQKFQKVKGFGGAMTDAAALNILALSPPAQNLLLKSYFSEEGIGYNIIRVPMASCDFSIRTYTYADTPDDFQLHNFSLPEEDTKLKIPLIHRALQLAQRPVSLLASPWTSPTWLKTNGAVNGKGSLKGQPGDIYHQTWARYFVKFLDAYAEHKLQFWAVTAENEPSAGLLSGYPFQCLGFTPEHQRDFIARDLGPTLANSTHHNVRLLMLDDQRLLLPHWAKVVLTDPEAAKYVHGIAVHWYLDFLAPAKATLGETHRLFPNTMLFASEACVGSKFWEQSVRLGSWDRGMQYSHSIITNLLYHVVGWTDWNLALNPEGGPNWVRNFVDSPIIVDIAAATFYKQPMFYHLGHFSKFIPEGSQRVGLVASQKNDLDAVALMHPDGSAVVVVLNRSSKDVPLTIKDPAVGFLETISPGYSIHTYLWRRQ
CRIM specific activity relative to WT (assigned 100%) [1]: 20% | lysosomal localization of GCases with alanine substitutions in the TKD sequence, in words [4]: no lysosomal localization | co-localization to / retention in the ER/Golgi, in words [4]: majority of the enzymes co-localized to the ER/Golgi; also recorded: abundant colocalization to the ER | GCase activity in the media / secretion, in words [2]: the least | binding of GCase variant to ldLIMP2, in words [3]: essentially no binding; also recorded: did not bind

B3: AKA: human GCase with TKD (407-409) replaced by AKA (protein, listed as Homo sapiens)
chain: ARPCIPKSFGYSSVVCVCNATYCDSFDPPTFPALGTFSRYESTRSGRRMELSMGPIQANHTGTGLLLTLQPEQKFQKVKGFGGAMTDAAALNILALSPPAQNLLLKSYFSEEGIGYNIIRVPMASCDFSIRTYTYADTPDDFQLHNFSLPEEDTKLKIPLIHRALQLAQRPVSLLASPWTSPTWLKTNGAVNGKGSLKGQPGDIYHQTWARYFVKFLDAYAEHKLQFWAVTAENEPSAGLLSGYPFQCLGFTPEHQRDFIARDLGPTLANSTHHNVRLLMLDDQRLLLPHWAKVVLTDPEAAKYVHGIAVHWYLDFLAPAKATLGETHRLFPNTMLFASEACVGSKFWEQSVRLGSWDRGMQYSHSIITNLLYHVVGWTDWNLALNPEGGPNWVRNFVDSPIIVDIAKATFYKQPMFYHLGHFSKFIPEGSQRVGLVASQKNDLDAVALMHPDGSAVVVVLNRSSKDVPLTIKDPAVGFLETISPGYSIHTYLWRRQ
CRIM specific activity relative to WT (assigned 100%) [1]: 49% | lysosomal localization of GCases with alanine substitutions in the TKD sequence, in words [4]: less lysosomal localization | co-localization to / retention in the ER/Golgi, in words [4]: majority of the enzymes co-localized to the ER/Golgi | binding of GCase variant to ldLIMP2 ([3]; GCase on beads vs wash, FIG. 6C): about 50% | binding of GCase variant to ldLIMP2, in words [3]: much less bound
